Paper PMC10681739, “High-throughput data and modeling reveal insights into the mechanisms of cooperative DNA-binding by transcription factor proteins”

B1: Table S2 B row 269 (dsDNA)
DNA 1: AGAAAAGGAAATGGTGGGCTGCACACCCCAGCTCAC
DNA 2: GTGAGCTGGGGTGTGCAGCCCACCATTTCCTTTTCT
B2: Table S2 B row 2289 (dsDNA)
DNA 1: GAGGAAAGGAAGTCAAGGCCAGGGCCGAAGAGGCCA
DNA 2: TGGCCTCTTCGGCCCTGGCCTTGACTTCCTTTCCTC
B3: Table S2 B row 1261 (dsDNA)
DNA 1: ACTCCAGAGGAAGTGGCAAGACGAGCGCGGCAACGG
DNA 2: CCGTTGCCGCGCTCGTCTTGCCACTTCCTCTGGAGT
B4: Table S2 B row 1194 (dsDNA)
DNA 1: TGAGTTTTGTTTCCGATTCACCTCAGAAGATACTTT
DNA 2: AAAGTATCTTCTGAGGTGAATCGGAAACAAAACTCA
B5: Table S2 B row 3942 (dsDNA)
DNA 1: GAAATTTCCGCTTTCTTTCTGCAGCAGGAACCTCGG
DNA 2: CCGAGGTTCCTGCTGCAGAAAGAAAGCGGAAATTTC
B6: Table S2 B row 1406 (dsDNA)
DNA 1: GCACACACACATCCTCCCGGCCCGGCCGCCGCCGCT
DNA 2: AGCGGCGGCGGCCGGGCCGGGAGGATGTGTGTGTGC
B7: Table S2 B row 1285 (dsDNA)
DNA 1: TTAAACACGGAAGTGCATCGGTTGTTGTAGTTATTC
DNA 2: GAATAACTACAACAACCGATGCACTTCCGTGTTTAA
B8: Table S2 B row 1696 (dsDNA)
DNA 1: CTCATCAGTCATCCGGCTGGACTGCAGGAGCTCTCC
DNA 2: GGAGAGCTCCTGCAGTCCAGCCGGATGACTGATGAG
B9: Table S2 B row 2398 (dsDNA)
DNA 1: GCTTTGCAGTTTCCTCTATGGAACACCAGACACAGT
DNA 2: ACTGTGTCTGGTGTTCCATAGAGGAAACTGCAAAGC
B10: Table S2 B row 1455 (dsDNA)
DNA 1: AGTGAGCTTCCTCCTGAGGCCTGAGGCAACCCCAGG
DNA 2: CCTGGGGTTGCCTCAGGCCTCAGGAGGAAGCTCACT
B11: Table S2 B row 753 (dsDNA)
DNA 1: AGGGACTTCCGGTGACCAGAGCACTAGCGCCGTAAA
DNA 2: TTTACGGCGCTAGTGCTCTGGTCACCGGAAGTCCCT
B12: Table S2 B row 606 (dsDNA)
DNA 1: TCCGGAAGTCGGAGGAACACCCCAGCCGGCGCAGCC
DNA 2: GGCTGCGCCGGCTGGGGTGTTCCTCCGACTTCCGGA
B13: Table S2 B row 2632 (dsDNA)
DNA 1: TACGTCACTTCCGGGCCGCCGTCCTGCAGGCAAGGG
DNA 2: CCCTTGCCTGCAGGACGGCGGCCCGGAAGTGACGTA
B14: Table S2 B row 3748 (dsDNA)
DNA 1: GATTCATATCCTCCTCTATGCAACGACAGCATCTTC
DNA 2: GAAGATGCTGTCGTTGCATAGAGGAGGATATGAATC
B15: Table S2 B row 992 (dsDNA)
DNA 1: TATCGACAAAAGTTCCGGCCCGCGGCAGCGGAGGGA
DNA 2: TCCCTCCGCTGCCGCGGGCCGGAACTTTTGTCGATA
B16: Table S2 B row 3693 (dsDNA)
DNA 1: ACCAAAACACATCCTGGGGCCCCTCACAATTAGTGA
DNA 2: TCACTAATTGTGAGGGGCCCCAGGATGTGTTTTGGT
B17: Table S2 B row 2348 (dsDNA)
DNA 1: CAAAAGTGCTTCCTCTCGAGGGGTTGTAGTTCTTAC
DNA 2: GTAAGAACTACAACCCCTCGAGAGGAAGCACTTTTG
B18: Table S2 B row 1755 (dsDNA)
DNA 1: CAGAAAGAGGAAATGATGCGAGTCCACACCGAAGGC
DNA 2: GCCTTCGGTGTGGACTCGCATCATTTCCTCTTTCTG
B19: Table S2 B row 3568 (dsDNA)
DNA 1: GAACCCCAAGTTCCGGCTGGCACTGCGCCGGAGCCT
DNA 2: AGGCTCCGGCGCAGTGCCAGCCGGAACTTGGGGTTC
B20: Table S2 B row 3763 (dsDNA)
DNA 1: GCGCCCCGTCCTTCCGCAGCCCAAGCGCCTCTTCCC
DNA 2: GGGAAGAGGCGCTTGGGCTGCGGAAGGACGGGGCGC
B21: Table S2 B row 4047 (dsDNA)
DNA 1: CCGCTCTTCCTGGAGGTCTCTTGGCCGCTCACCCTC
DNA 2: GAGGGTGAGCGGCCAAGAGACCTCCAGGAAGAGCGG
B22: Table S2 B row 4071 (dsDNA)
DNA 1: ATGGAAATGTCGTTAAGAACTTCCTCTTTTACTAGA
DNA 2: TCTAGTAAAAGAGGAAGTTCTTAACGACATTTCCAT
B23: Table S2 B row 56 (dsDNA)
DNA 1: CAGAGAAACAGGAAGAACAGTGCTTTCAACTGAAAT
DNA 2: ATTTCAGTTGAAAGCACTGTTCTTCCTGTTTCTCTG
B24: Table S2 B row 2614 (dsDNA)
DNA 1: GGCTTCCGCGCCTGCAGAACTACAGCTCCCAGAAGG
DNA 2: CCTTCTGGGAGCTGTAGTTCTGCAGGCGCGGAAGCC
B25: Table S2 B row 1838 (dsDNA)
DNA 1: GTACGTTTCCTCATTGACTGGCCAACGACTATCATG
DNA 2: CATGATAGTCGTTGGCCAGTCAATGAGGAAACGTAC
B26: Table S2 B row 1905 (dsDNA)
DNA 1: ACTTCCAGGAAGCCCCATAGTCCAGAAACCTACACA
DNA 2: TGTGTAGGTTTCTGGACTATGGGGCTTCCTGGAAGT
B27: Table S2 B row 528 (dsDNA)
DNA 1: CGAACTACATCCTCTGAGGTGTAGCTTTTTGGCCTG
DNA 2: CAGGCCAAAAAGCTACACCTCAGAGGATGTAGTTCG
B28: Table S2 B row 2482 (dsDNA)
DNA 1: TGCGACGGAAGCAGGAACTTGCTAACTACAAAACCC
DNA 2: GGGTTTTGTAGTTAGCAAGTTCCTGCTTCCGTCGCA
B29: Table S2 B row 2334 (dsDNA)
DNA 1: CCCCTCGCCCTTCCGCATTGCGTGTTACTTCGGTTG
DNA 2: CAACCGAAGTAACACGCAATGCGGAAGGGCGAGGGG
B30: Table S2 B row 1858 (dsDNA)
DNA 1: TGGCTTCCTGTCTGTCCTTCATCAGCCCAGAGAGGC
DNA 2: GCCTCTCTGGGCTGATGAAGGACAGACAGGAAGCCA
B31: Table S2 B row 713 (dsDNA)
DNA 1: CCCTTCCGCGTGGGTTGCACCTGCTAATCACAGAGC
DNA 2: GCTCTGTGATTAGCAGGTGCAACCCACGCGGAAGGG
B32: Table S2 B row 1424 (dsDNA)
DNA 1: TGCTTGTCCGGTGGCTGCTGCGCTGCCGAAACGAAT
DNA 2: ATTCGTTTCGGCAGCGCAGCAGCCACCGGACAAGCA
B33: Table S2 B row 1511 (dsDNA)
DNA 1: GCACCGTGGCACTTCCGCGAGCGCCGCTGGCCCTGC
DNA 2: GCAGGGCCAGCGGCGCTCGCGGAAGTGCCACGGTGC
B34: Table S2 B row 1819 (dsDNA)
DNA 1: CCGATTTCCCCGGACGTGGTGAGACGGCGCTTCGTC
DNA 2: GACGAAGCGCCGTCTCACCACGTCCGGGGAAATCGG
B35: Table S2 B row 591 (dsDNA)
DNA 1: CACCTCCTACTTCCCCCCGCTGATAACTACCAACCC
DNA 2: GGGTTGGTAGTTATCAGCGGGGGGAAGTAGGAGGTG
B36: Table S2 B row 1649 (dsDNA)
DNA 1: CCCCCACATCCTGTTTGGTTAGTGGGACACCTCAAC
DNA 2: GTTGAGGTGTCCCACTAACCAAACAGGATGTGGGGG
B37: Table S2 B row 3457 (dsDNA)
DNA 1: CCACTGCCGGAAGGGGAACTCTGGGGGTGCGCGAGT
DNA 2: ACTCGCGCACCCCCAGAGTTCCCCTTCCGGCAGTGG
B38: Table S2 B row 1694 (dsDNA)
DNA 1: CCCTTCCTGAGGGCAAGGCGAGGGCACCTACAGCCT
DNA 2: AGGCTGTAGGTGCCCTCGCCTTGCCCTCAGGAAGGG
B39: Table S2 B row 3076 (dsDNA)
DNA 1: AGGCCTCGCTTCCTCTCCTGAGCACACCCTGCAGCT
DNA 2: AGCTGCAGGGTGTGCTCAGGAGAGGAAGCGAGGCCT
B40: Table S2 B row 1189 (dsDNA)
DNA 1: TCCAGCGGAAGGGGGCATCTTTACGGCAGAGGCAGC
DNA 2: GCTGCCTCTGCCGTAAAGATGCCCCCTTCCGCTGGA
B41: Table S2 B row 1848 (dsDNA)
DNA 1: TCCCGGGGAGGAAGTGGCGAGAATTCGGGGGTGGGC
DNA 2: GCCCACCCCCGAATTCTCGCCACTTCCTCCCCGGGA
B42: Table S2 B row 618 (dsDNA)
DNA 1: GCGCAAGGATCCGGTTTGTTCTGGTGTGGGGAGGGG
DNA 2: CCCCTCCCCACACCAGAACAAACCGGATCCTTGCGC

Molecular target: T1, ETS1 (Homo sapiens, UniProt P14921)
T1 sequence: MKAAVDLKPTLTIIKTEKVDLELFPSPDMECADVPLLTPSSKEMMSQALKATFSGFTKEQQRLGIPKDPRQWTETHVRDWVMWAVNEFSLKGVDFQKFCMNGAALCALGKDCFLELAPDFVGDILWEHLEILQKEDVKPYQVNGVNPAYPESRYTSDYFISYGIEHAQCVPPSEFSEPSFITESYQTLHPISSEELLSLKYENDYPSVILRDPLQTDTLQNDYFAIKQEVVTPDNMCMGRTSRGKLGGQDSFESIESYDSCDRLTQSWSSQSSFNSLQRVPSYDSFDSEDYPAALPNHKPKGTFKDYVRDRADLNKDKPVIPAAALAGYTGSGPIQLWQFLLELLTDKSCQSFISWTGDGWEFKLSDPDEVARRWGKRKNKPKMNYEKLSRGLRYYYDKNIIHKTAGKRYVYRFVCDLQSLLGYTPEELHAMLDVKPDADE
Test: gcPBM; 1 nM ETS1
Conditions: tags: N-terminal GST (pDEST15), kept (PMC6008103); label: surface-attached array probe

Row | Binder | binding signal
1 | B1 | 1890 PBM fluorescence, median of replicate spots
2 | B2 | 1410 PBM fluorescence, median of replicate spots
3 | B3 | 2240 PBM fluorescence, median of replicate spots
4 | B4 | 1570 PBM fluorescence, median of replicate spots
5 | B5 | 21200 PBM fluorescence, median of replicate spots
6 | B6 | 2180 PBM fluorescence, median of replicate spots
7 | B7 | 2090 PBM fluorescence, median of replicate spots
8 | B8 | 1700 PBM fluorescence, median of replicate spots
9 | B9 | 2540 PBM fluorescence, median of replicate spots
10 | B10 | 1620 PBM fluorescence, median of replicate spots
11 | B11 | 55700 PBM fluorescence, median of replicate spots
12 | B12 | 2610 PBM fluorescence, median of replicate spots
13 | B13 | 21800 PBM fluorescence, median of replicate spots
14 | B14 | 2160 PBM fluorescence, median of replicate spots
15 | B15 | 1930 PBM fluorescence, median of replicate spots
16 | B16 | 2280 PBM fluorescence, median of replicate spots
17 | B17 | 1960 PBM fluorescence, median of replicate spots
18 | B18 | 2640 PBM fluorescence, median of replicate spots
19 | B19 | 2450 PBM fluorescence, median of replicate spots
20 | B20 | 1510 PBM fluorescence, median of replicate spots
21 | B21 | 1540 PBM fluorescence, median of replicate spots

Row | Binder | binding signal
22 | B22 | 2700 PBM fluorescence, median of replicate spots
23 | B23 | 2500 PBM fluorescence, median of replicate spots
24 | B24 | 2000 PBM fluorescence, median of replicate spots
25 | B25 | 2340 PBM fluorescence, median of replicate spots
26 | B26 | 2110 PBM fluorescence, median of replicate spots
27 | B27 | 2040 PBM fluorescence, median of replicate spots
28 | B28 | 1960 PBM fluorescence, median of replicate spots
29 | B29 | 1460 PBM fluorescence, median of replicate spots
30 | B30 | 20600 PBM fluorescence, median of replicate spots
31 | B31 | 1660 PBM fluorescence, median of replicate spots
32 | B32 | 1420 PBM fluorescence, median of replicate spots
33 | B33 | 2410 PBM fluorescence, median of replicate spots
34 | B34 | 1790 PBM fluorescence, median of replicate spots
35 | B35 | 1740 PBM fluorescence, median of replicate spots
36 | B36 | 23400 PBM fluorescence, median of replicate spots
37 | B37 | 2580 PBM fluorescence, median of replicate spots
38 | B38 | 1830 PBM fluorescence, median of replicate spots
39 | B39 | 2200 PBM fluorescence, median of replicate spots
40 | B40 | 1600 PBM fluorescence, median of replicate spots
41 | B41 | 2460 PBM fluorescence, median of replicate spots
42 | B42 | 2310 PBM fluorescence, median of replicate spots
